Experimental data as given in US20140242093A1, “METHODS AND COMPOSITIONS FOR MODULATING THE INNATE IMMUNE RESPONSE AND/OR MYOGENESIS IN A MAMMALIAN SUBJECT” (FRED HUTCHINSON CANCER RESEARCH CENTER, priority 2011, published 2014).

Test system: control human primary myoblasts
Assay: Expression microarray of primary myoblasts transduced with lentivirus carrying DUX4-fl, DUX4-s or GFP
Description: Primary human myoblasts were collected and cultured as previously described (Snider et al., 2010). Primary myoblasts were maintained at or below 70% confluency for proliferation. For differentiation, cells were allowed to reach 95-100% confluency in growth medium. Once confluency was reached, the cells were changed to differentiation medium (F10 media supplemented with 1% horse serum, 10 μg/mL insulin, and 10 μg/mL transferrin, penicillin/streptomycin) and maintained for 4 days. Human RD cells were grown in DMEM in 10% bovine calf serum (Hyclone) and penicillin/streptomycin. The primary myoblasts were transduced with lentivirus carrying DUX-fl, DUX4- or GFP (MOI=15).
Expression microarrays were performed on the transduced cells at 24 hours after transduction as follows. […] Samples were analyzed by Illumina Human Whole Genome microarrays. Probe intensities were corrected, normalized, and summarized by the Lumi package of Bioconductor (Du et al., 2008). Differentially expressed genes were identified by the LIMMA package of Bioconductor (Wettenhall and Smyth, 2004). Gene set enrichment analysis (GSEA) was performed using the Bioconductor GOstats package (Falcon and Gentleman, 2007).

B1: DUX4-s: short splice form of DUX4 (SEQ ID NO:112), keeps the double-homeobox domains, lacks the C-terminal activation domain (protein, listed as Homo sapiens)
chain: MALPTPSDSTLPAEARGRGRRRRLVWTPSQSEALRACFERNPYPGIATRERLAQAIGIPEPRVQIWFQNERSRQLRQHRRESRPWPGRRGPPEGRRKRTAVTGSQTALLLRAFEKDRFPGIAAREELARETGLPESRIQIWFQNRRARHPGQGGRAPAQV
- PNMA6B expression fc (Refseq XM_001721351.1): −0.2189
- LOC100133984 expression fc (Refseq XM_001723079.1): −0.03265
- LOC649330 expression fc (Refseq XM_001723218.1): −0.2697
- LOC100128202 expression fc (Refseq XM_001723719.1): −0.1157
- LOC100130311 expression fc (Refseq XM_001724111.1): 0.1436
- LOC100131539 expression fc (Refseq XM_001724873.1): 0.06524
- LOC100134006 expression fc (Refseq XM_001725030.1): −0.02089
- LOC730167 expression fc (Refseq XM_001726158.1): 1.257
- LOC100129681 expression fc (Refseq XM_001726834.1, cultured human skeletal muscle): 0.5189
- LOC651709 expression fc (Refseq XM_001732813.1): 0.09445
- LOC727828 expression fc (Refseq XR_015137.1): −0.00556
- LOC728060 fc (Refseq XR_015272.2): 0.2553
- LOC732393 expression fc (Refseq XR_015873.1): 0.03683
- MGC40489 expression fc (Refseq XR_016048.1): −0.4604
- LOC643263 expression fc (Refseq XR_016355.1): −0.133
- LOC441081 expression fc (Refseq XR_017029.1): 0.06023
- LOC647366 expression fc (Refseq XR_018122.1): −0.003339
- LOC440041 expression fc (Refseq XR_018122.2): 0.021
- LOC647827 expression fc (Refseq XR_018213.1): −0.05208
- LOC399988 expression fc (Refseq XR_018287.2): −0.4131
- LOC650215 fc (Refseq XR_018889.1): 0.6386
- fc of RBMS2P (expression array) (Refseq XR_019556.2): 1.313
- LOC642148 expression fc (Refseq XR_019607.1): 0.1352
- LOC650236 expression fc (Refseq XR_036872.1): −0.05945
- LOC100134322 expression fc (Refseq XR_037416.1): 0.1962
- LOC730974 expression fc (Refseq XR_037751.1): 0.02384
- LOC643445 expression fc (Refseq XR_038080.1): 0.07882
- LOC729516 expression fc (Refseq XR_038445.1): −0.00369
- LOC340970 expression fc (Refseq XR_038494.1): 0.03296
- LOC645381 expression fc (Refseq XR_038557.1): −0.1266
- LOC728429 expression fc (Refseq XR_038921.1): −0.02834
- LOC645638 fc (Refseq XR_040455.1): −0.07113
- LOC400464 expression fc (Refseq XR_041115.1): −0.07853
- TRIM53 expression fc (Refseq XR_041244.1): 0.07913
- LOC729009 expression fc (Refseq XR_042330.1, cultured human skeletal muscle): 0.6634
- ABCC3 expression fc (cultured human skeletal muscle): 0.1349
- ADM expression fc (cultured human skeletal muscle): 0.6367
- AGTRAP expression fc (cultured human skeletal muscle): 0.6152
- AHNAK expression fc (cultured human skeletal muscle): 0.163
- ANGPTL2 expression fc (cultured human skeletal muscle): −0.7837
- ANKFY1 expression fc (cultured human skeletal muscle): 0.09409
- APOL3 expression fc (cultured human skeletal muscle): 0.9777
- ARHGEF19 expression fc (cultured human skeletal muscle): 0.1103
- ARID3A expression fc (cultured human skeletal muscle): 0.2867
- ASNS expression fc (cultured human skeletal muscle): 0.7133
- ATF5 expression fc (cultured human skeletal muscle): 0.5025
- ATL3 expression fc (cultured human skeletal muscle): 1.352
- BHLHB2 expression fc (cultured human skeletal muscle): 0.6222
- BTG2 expression fc (cultured human skeletal muscle): −0.1242
- BTN3A2 expression fc (cultured human skeletal muscle): 0.3356
- BTN3A3 expression fc (cultured human skeletal muscle): 0.4019
- C1RL expression fc (cultured human skeletal muscle): −0.1589
- C4orf18 expression fc (cultured human skeletal muscle): −0.5109
- C8orf13 expression fc (cultured human skeletal muscle): 0.4235
- C14orf4 expression fc (cultured human skeletal muscle): 0.05349
- C18orf56 expression fc (cultured human skeletal muscle): 0.2126
- CA9 expression fc (cultured human skeletal muscle): 0.5237
- CABC1 expression fc (cultured human skeletal muscle): −0.1757
- CABYR expression fc (cultured human skeletal muscle): −0.04313
- CCDC8 expression fc (cultured human skeletal muscle): −0.09225
- CEBPD expression fc (cultured human skeletal muscle): 0.1596
- CLDN15 expression fc (cultured human skeletal muscle): −0.3718
- CNTNAP1 expression fc (cultured human skeletal muscle): 0.1486
- COL8A1 expression fc (cultured human skeletal muscle): 0.469
- CRISPLD2 expression fc (cultured human skeletal muscle): −0.45
- CSF3 expression fc (cultured human skeletal muscle): 0.8126
- CYGB expression fc (cultured human skeletal muscle): 0.157
- CYP26B1 expression fc (cultured human skeletal muscle): 0.4149
- CYP27A1 expression fc (cultured human skeletal muscle): −0.0598
- DAB2 expression fc (cultured human skeletal muscle): 0.1092
- DCN expression fc (cultured human skeletal muscle): 0.2641
- DDB2 expression fc (cultured human skeletal muscle): 0.1073
- DDIT4 expression fc (cultured human skeletal muscle): 0.346
- DDX60L expression fc (cultured human skeletal muscle): 0.6578
- DKFZp451A211 expression fc (cultured human skeletal muscle): 0.3087
- DNAJB2 expression fc (cultured human skeletal muscle): −0.01635
- DUSP10 expression fc (cultured human skeletal muscle): −0.3659
- ERAP2 expression fc (cultured human skeletal muscle): 0.7658
- ESPNL expression fc (cultured human skeletal muscle): −0.2957
- FADS1 expression fc (cultured human skeletal muscle): 0.4186
- FAM110B expression fc (cultured human skeletal muscle): −0.7651
- FAM175A expression fc (cultured human skeletal muscle): 0.2667
- FHL2 expression fc (cultured human skeletal muscle): −0.08794
- FILIP1L expression fc (cultured human skeletal muscle): 0.06528
- FKBP5 expression fc (cultured human skeletal muscle): −0.1027
- FOXQ1 expression fc (cultured human skeletal muscle): 0.6403
- FPR1 expression fc (cultured human skeletal muscle): 0.9327
- FST expression fc (cultured human skeletal muscle): 0.9107
- FUCA1 expression fc (cultured human skeletal muscle): 0.2909
- GALK1 expression fc (cultured human skeletal muscle): −0.5288
- GALNTL2 expression fc (cultured human skeletal muscle): 0.9881
- GAS1 expression fc (cultured human skeletal muscle): 0.007049
- GBP4 expression fc (cultured human skeletal muscle): 2.337
- GFPT2 expression fc (cultured human skeletal muscle): 0.04945
- GPX8 expression fc (cultured human skeletal muscle): −0.3321
- GRINA expression fc (cultured human skeletal muscle): 0.4683
- GSDMD expression fc (cultured human skeletal muscle): 0.5738
- HAS2 expression fc (cultured human skeletal muscle): 0.691
- HCG4 expression fc (cultured human skeletal muscle): 0.6838
- HES4 expression fc (cultured human skeletal muscle): 1.068
- HLA-C expression fc (cultured human skeletal muscle): 0.6015
- HLA-H expression fc (cultured human skeletal muscle): 0.327
- HOXC6 expression fc (cultured human skeletal muscle): −0.1927
- ID3 expression fc (cultured human skeletal muscle): −0.07117
- IDH3B expression fc (cultured human skeletal muscle): 0.07117
- IFIT5 expression fc (cultured human skeletal muscle): −0.2831
- IFITM2 expression fc (cultured human skeletal muscle): 0.006726
- IGFBP5 expression fc (cultured human skeletal muscle): 0.178
- IHPK3 expression fc (cultured human skeletal muscle): −0.09089
- IL32 expression fc (cultured human skeletal muscle): 0.06112
- IMPA2 expression fc (cultured human skeletal muscle): −0.3411
- IRAK2 expression fc (cultured human skeletal muscle): 0.5116
- IRAK3 expression fc (cultured human skeletal muscle): 1.053
- ISCU expression fc (cultured human skeletal muscle): 0.03975
- ITPRIP expression fc (cultured human skeletal muscle): 0.5516
- KIAA1618 expression fc (cultured human skeletal muscle): −0.2961
- KLF6 expression fc (cultured human skeletal muscle): 0.6419
- KRT17 expression fc (cultured human skeletal muscle): 0.4585
- LAP3 expression fc (cultured human skeletal muscle): 1.402
- LIMA1 expression fc (cultured human skeletal muscle): 0.2565
- LOC387763 expression fc (cultured human skeletal muscle): 0.2048
- LOC389386 expression fc (cultured human skeletal muscle): 1.37
- LOC392437 expression fc (cultured human skeletal muscle): 0.113
- LOC653879 expression fc (cultured human skeletal muscle): 0.3261
- LOC728431 expression fc (cultured human skeletal muscle): 0.4549
- MAMDC2 expression fc (cultured human skeletal muscle): −0.02851
- MAOA expression fc (cultured human skeletal muscle): −0.3759
- MCEE expression fc (cultured human skeletal muscle): −0.341
- MGC16121 expression fc (cultured human skeletal muscle): 0.01304
- MIOS expression fc (cultured human skeletal muscle): 0.1238
- MLPH expression fc (cultured human skeletal muscle): 0.4233
- MMP3 expression fc (cultured human skeletal muscle): 0.2839
- MOCOS expression fc (cultured human skeletal muscle): 0.4177
- MOV10 expression fc (cultured human skeletal muscle): 0.6869
- MSC expression fc (cultured human skeletal muscle): 0.2529
- MSI2 expression fc (cultured human skeletal muscle): 1.327
- MT1A expression fc (cultured human skeletal muscle): −0.1212
- MT2A expression fc (cultured human skeletal muscle): 0.08469
- MUC1 expression fc (cultured human skeletal muscle): 0.3508
